{
  "source": "patent US20160053277A1",
  "about": "“Compositions Having Dicamba Decarboxylase Activity and Methods of Use” (PIONEER HI-BRED INTERNATIONAL, INC., priority 2013, published 2016)",
  "molecules": {"B1": {"name": "71 (protein, listed as Burkholderia dolosa)", "chain": "MARAGHRAARTRQSRPGDRTMTCSCCMSAGRRRVLGAFAALAGAPKGPRAASAAQPAAASKPTRGDATARNRHSRALLPGKASASWSATKASGSGGAFAWDDTTFTFRTPAGGLGPLPMKFIDVDARLRDMDASGVDVQALSLSVPMAYWGDRPFNAKLARAWNTAASRVHVRAPDRFVVLATLPMLDATDAIDELERASELPGVRGVYMGTNIDNRDLDDPRFAPVFARIEQLGLPVFLHPQQTVGGARLGDFYLSNLLGNPFDTAIAASHLILGGVLDRHPALHFTLPHAGGALPILVGRLDAGWTVRAETRRLAHQPSGYLRRFSYDTVSHSGPVLNFLIENVGIDRLVLGSDYCFDMGYEQPVRFLDRLDLTPDERAMVIGGNAGRLLRI"}, "B2": {"name": "59 (protein)", "chain": "MAPSVIDAHAHFLPGSLVTALRSRSDAPDIRTDSNGGESFGIYRTRMPYGRTYDALDVRLARMDELGVDRQILSLPGLFGIDSRPVSQALPLVRAFNDGVADLVRKHPDRFSGIAALPLADLDAAQEEYRRARGDLGLSGLILPGDTFVSVAAAERVRPLFELAATIGGLIFVHPGPLPDETGSAVDAPAPHTDSVVHRRVTVDIQNRMTEVMVTLALTDFLAPYPSVPVQVANLGGSLPFVIERMDHVYALRNPEAPPPSLSLRSLYVDAASLGPRAIALAAEVYGADRVLFGSDYPIFDDGRCLDAVRQTRLSPDARALIAGGNAARMLTQT", "modifications": "alpha proteobacterium"}, "B3": {"name": "45 (protein)", "chain": "MANDDLAEVIAAHPDRFAGFAALPMRDPQAAAVELQRAVGTHGFCGAMINGLIEGRFLDDPAFAPLLSTAADLGVPLYLHPSFPPPQVAEIYFGGLAPVLGDLLATAGWGWHAETALHVLRLVATGVFDRLPELWVIVGHMGEMIPFALARIDTVLSPVAQLRQPVAQYFQTNVWFTTSGYTTFPPLQCALSTVGIDRLIFSVDYPYTDNTSARALLDTAPISPVDREKLAHGTVEALLRV", "modifications": "Mycobacterium sp"}, "B4": {"name": "61 (protein, listed as Gordonia amarae)", "chain": "MATGAGSGVPSPADRVIVRSPGVIDVHAHAVLPMSLGCAGAAGPEIGYREDGSPFFRVGEYVLNGVRYEGSAFMDPEVRVAAMDAAGIGLQMISPNPITYFTRLDARSATDYARAHNDAIAEAAGRHPGRLVGAAQLPMQDVPAAIAELERSVRELGLVAAYIDTDIGDRTLDAPELDDFYSAAVELDVPVFIHPSPVGQEGPPDDTRLRRFDLDLLLGFSYDETLAVAALVFGGVLERHPALDVCLSHGGGTLAFVAGRFARAVAKPRAWVPEFLVENGIESYLRRLWLDTHVHSAGSLRLLIDTVGTDRLVFGTNFAGWDADGATEVDALGDLRETTTANAAHLLRLGRA"}, "B5": {"name": "60 (protein, listed as Catenulispora acidiphila)", "chain": "MARGFVRTAVVPGFWDAGWRGAGQPGGMRVDVHAHLFPAAYLDLLDDFRQDGGVGTREVRALGGGDGERELRLRLAAMDAVGVDVQLLSTCPQGPYTGDPTAAVEAARCANVALAQTVAQYPERLRALAALPLPHILASVDELNRAMEQDGMLGAAVGTSILGRPLSHPDFEPLFAALNRRKGVLFVHPIGESAGSPLMQASKLDRVIGYAAEVSTAILQLFQAGLTVKYPDIRIIAPHMGGYLPFLIQRLDRHRDWYLPKDAPSAGQLMRGIAYDTANPLPAALRLTAEVVGPERLLLGTDYPFEQGPSLRDHIEYILAAGLPEAQAKMIVDVNAADFLDMRSGAEQPPV"}, "B6": {"name": "69 (protein, listed as Microbacterium testaceum)", "chain": "MATSTEGQDVTDVHAHLLMPGLHAEVERRVPDEVQAAADLELRRNGLASLQASGRMIGERFPRLTDVRARLAAMDEQGVDRQWVSPSPNHFYPWANEGLATWASGEANRLIAEHVALAPDRLVGLGVVPLQHPHLVVDALDDAVLGRGLAGVEISSFAGDVELSDERLESFWARAAELRAVVFLHPFGCSLDERLDRFYLSNTVGQPTENAVALSHLIFSGVLDRHPGLRLIAAHGGGYLPTAIGRSDRAWRVRPEARGCAHAPSTYLSKLWFDTVVHDERALRWLVEAAGADRVLLGSDFPFDMGLDDPVAFVRGAGLQDAEVSGILGGNAAELLRTRVHA"}, "B7": {"name": "68 (protein, listed as Hoeflea phototrophica)", "chain": "MAIIDAHTHTLCPAVNEKVAGTIKPDSVPYQRDMSPESKEQDHTQFPELKIMFNQVERRLADMARMGIDRQVIAPAPGQQHYWAEPKLLAEISALQNDHVAELVARAPDRFAGIGTLPMTDPDAAVAEITRATRELGLRVFQIDSRVMERELSDASLDPIYAALEAAGAGLMIHPLGFSNGERLTPFFMVNSVAQPLEELLAFNHLVFGGVLDRFPKLKVYIAHGGGFAPFYIGRFDHAWKVRPEVNRLTPSAPSTYLRRIYFDTCVYRTDHIETLVRTVGADRVMLGSDYPFDMGDTDPLGLLNACQGLSDDEKATISSKVAIDFFGLET"}, "B8": {"name": "42 (protein)", "chain": "MAQGKIALEEHFAIPDTLQDSAGFVPGDYWKELSARLLDIHEQRLMQMDAYGIEKMILSLNAPAVQAIPDKAKALEISRRANDFLAEQCARNPDRFLGFAALPLQDPDAATAELQRCVKTLGFVGALVNGFSQEGDGVTPLYYDLPQYRGFWAEVEKLAVPFYLHPRNPLPQDSRIYAGHPWLMGPTWAFAQETAVHALRLVGSGLFDDHPALRIILGHMGEGLPYMMWRIDNRNAWVKVAPNYPAKRRIADYFNENFYITTSGNFRTQSLVDAMLEIGADRILFSTDWPFENIDHASDWFDTATISEADRLKIGRTNAATLFNLES", "modifications": "Agrobacterium radiobacter"}, "B9": {"name": "64 (protein, listed as Achromobacter piechaudii)", "chain": "MAIQKIDMHAHFFPPITRQEAAALDPVNAPWLRPDADGATGQIMAGEREFRPVDATLWDPALRIEQMDRHGVDVQILCATPIMFGYTYPARPAADWAARMNDLALEHCAYAPSRLKALAQVPLQDLELACQEASRARAAGHLGVQIGNHVGPRDLDDETLVQFLIHCANNDIPVLVHPWDMMTDGRMKKWMLPWLVSMPAETQLGILSLILSGAFERIPRSLKLCFAHGGGSFAYLLGRVDNAWRHRDIIRQDCPQLPSSYTDRFYTDSAVFDPRSLRLLIDVMGEDRVLLGSDYPYPLGEQEVGRLVAHAELVPEVQQKILFRNTMTFFGLQPGLQPGLQS"}, "B10": {"name": "70 (protein, listed as Alicyclobacillus acidocaldarius)", "chain": "MAIEPNRAADVHTHFLPTEVLEFLKREPRIQVDLERRAPDKEPFLTVEGRWSFELKRMFVDFEAFASAYRQAGIGLALVSPLPQLFVYHLPAEMGAQVAEVYNDALRDVLAPHRERFRPLATLPLADPTAAARELERRMDEGFVGAIVGPGVGEALIGDEAFWPLWEVADARRAVLFLHPLLHADPRAARLMLPNLVGVPWETTLAAAHLVLSGLLDRYPGARVLLAHGGGFLPYQIGRIEQGYDVWPQVRGRLQDRPTAYLRRMFYDNVLWSDAALRCLIDVVGADRVLAGSDFPFDLSAWPPRPGADVSVLAGGSGREGRLS"}, "B11": {"name": "40 (protein, listed as Rhodococcus jostii)", "chain": "MAQGKIALEEHFAIPETLNDSAGFVPGTYWDELQARLLDIQDVRLKLMDEHNIETMILSLNAPAVQAIPERERAIDIARRANDVLAEECAKRPDRFRGFAALPLQDPDAAAEELRRCVTELGFVGALVNGFSQSATVDGGSTPLYYDLPRYRPFWAEVERLDVPFYLHPRNPLNQDARIYEGHPWLLGPTWAFAQETAVHALRLMASGLFDEHPGLRIVLGHMGEGIPAMLWRIDHRNAWVDVPPAYPAKRRMVDYFTENFFVTTSGNFRTQTLIDLLLELGSERVMFSTDWPFENINHAAEWFDAASISEADRLKIGRTNAATLFKLDR"}, "B12": {"name": "39 (protein, listed as Agrobacterium fabrum)", "chain": "MAQGKVALEEHFAIPETLQDSAGFVPGDCWTELQHRLLDIQDTRLKLMDAHGIETMILSLNAPAVQAIPDKTKAIEIARRANDALAEECAKRPDRFLAFAALPLQDPDAATQELRRCVNDLGFVGALVNGFSQEGDGQTPLYYDLPQYRPFWGEVEKLDVPFYLHPRNPLPQDSRIYDGHPWLLGPTWAFAQETAVHALRLMASGLFDEHPRLDIILGHMGEGLPYMMWRIDHRNAWVKLPPRYPAKRRFVDYFNENFHITTSGNFRTQTLIDAILEIGADRILFSTDWPFENIDHASDWFHATSIAEADRVKIGRTNARRLFKLDGR"}, "B13": {"name": "62 (protein)", "chain": "MAVGGKNFRDVTDQVWCPKKRIEDMDREGVDIQVLSPIPVTFSYWAKPEEAESMARIQNDFIAETVLAYPDRFVGLGTVPMQDGETAIREMERCITELNLHGIEIGTNVNGKNLDDPSFIEFFRMAEKWQVPIFIHPWETLGRDRMPHHNFMYTVGMPSETALAAATLIWSGIMEKFPRLKVCFAHGGGSFPYILPRLDQGWKVWPHLRLTTHPPSYYAKKFYFDSLNYDPINLKYMIERFGHEKIFMGSDYPFLLREVDPGKVIDETASLSEEQKAAMLGGNAAEFLNIDIKKRGVAYAESTNT", "modifications": "Bacillus thuringiensis serovar pulsiensis"}, "B14": {"name": "3 (protein, listed as Lactobacillus plantarum)", "chain": "MAKLITVEEHFESAAVTAAMRQAVGNAVLPAVSPALRQYMRDNLPSPAIMQDTQHERLAFMAQYGIDMQVLSYGNSSPQNLSPEQAVPLSQLANDELAKAVVAHPDRYAGLAVLPVGDPQAAVAELNRAVTTLGLRGVLLKGNYQNKFFDEPFFLPIFEAAAALDVPVYFHPSFIPQAVTSHYFESNQWSDVVTGILSSAGYGWHMDVGIQVIRMIASGIFDKLPGLKLISGHWGELVPLFLERLDDELTTYTDLQYPFSTYYRHNVYVTPSGILSAPQLQFMLAEMGADHLMYSIDYPYKQPETSGSFLDIADLTDEQRAQIAFGTATTLFKL"}},
  "data": [
    {"experiment": "14C assay with IPTG-induced recombinant E. coli cells: 14CO2 captured from [14C]-carboxyl-labeled dicamba", "conditions": "dicamba decarboxylation activity of the protein of the given SEQ ID NO; High / Low / No", "values": [
      {"molecule": "B1", "Enzymatic Detection level": "Low"},
      {"molecule": "B2", "Enzymatic Detection level": "No"},
      {"molecule": "B3", "Enzymatic Detection level": "No"},
      {"molecule": "B4", "Enzymatic Detection level": "No"},
      {"molecule": "B5", "Enzymatic Detection level": "No"},
      {"molecule": "B6", "Enzymatic Detection level": "No"},
      {"molecule": "B7", "Enzymatic Detection level": "No"},
      {"molecule": "B8", "Enzymatic Detection level": "Low"},
      {"molecule": "B9", "Enzymatic Detection level": "Low"},
      {"molecule": "B10", "Enzymatic Detection level": "Low"},
      {"molecule": "B11", "Enzymatic Detection level": "Low"},
      {"molecule": "B12", "Enzymatic Detection level": "No"},
      {"molecule": "B13", "Enzymatic Detection level": "No"},
      {"molecule": "B14", "Enzymatic Detection level": "Low"}
    ]},
    {"experiment": "14C assay with IPTG-induced recombinant E. coli cells: 14CO2 captured from [14C]-carboxyl-labeled dicamba", "conditions": "induced recombinant E. coli cells, [14C]-carboxyl-labeled dicamba, 14CO2 capture", "values": [
      {"molecule": "B1", "Dicamba Decarboxylase Activity": "Low"},
      {"molecule": "B2", "Dicamba Decarboxylase Activity": "No"},
      {"molecule": "B3", "Dicamba Decarboxylase Activity": "No"},
      {"molecule": "B4", "Dicamba Decarboxylase Activity": "No"},
      {"molecule": "B5", "Dicamba Decarboxylase Activity": "No"},
      {"molecule": "B6", "Dicamba Decarboxylase Activity": "No"},
      {"molecule": "B7", "Dicamba Decarboxylase Activity": "No"},
      {"molecule": "B8", "Dicamba Decarboxylase Activity": "Low"},
      {"molecule": "B9", "Dicamba Decarboxylase Activity": "Low"},
      {"molecule": "B10", "Dicamba Decarboxylase Activity": "Low"},
      {"molecule": "B11", "Dicamba Decarboxylase Activity": "Low"},
      {"molecule": "B12", "Dicamba Decarboxylase Activity": "No"},
      {"molecule": "B13", "Dicamba Decarboxylase Activity": "No"},
      {"molecule": "B14", "Dicamba Decarboxylase Activity": "Low"}
    ]},
    {"experiment": "Saturation mutagenesis of SEQ ID NO:109: dicamba decarboxylation activity of point mutants (carbon dioxide released)", "conditions": "decarboxylation activity (carbon dioxide released) of point mutant compared with unmutated backbone protein; backbone SEQ ID NO: 109", "values": [
      {"molecule": "B1", "Fold Activity": 1.5},
      {"molecule": "B2", "Fold Activity": 0.9},
      {"molecule": "B3", "Fold Activity": 1.7},
      {"molecule": "B4", "Fold Activity": 2.4},
      {"molecule": "B5", "Fold Activity": 1.6},
      {"molecule": "B6", "Fold Activity": 1.3},
      {"molecule": "B7", "Fold Activity": 1.3},
      {"molecule": "B8", "Fold Activity": 1.7},
      {"molecule": "B9", "Fold Activity": 1.8},
      {"molecule": "B10", "Fold Activity": 1.7},
      {"molecule": "B11", "Fold Activity": 1.4},
      {"molecule": "B12", "Fold Activity": 1.6},
      {"molecule": "B13", "Fold Activity": 1},
      {"molecule": "B14", "Fold Activity": 0.9}
    ]}
  ]
}
